According to patent US20100160234A1:

Biological target: Native eIF4E of High Five (Trichoplusia ni) insect cells (Trichoplusia ni)
Test: cell-based or functional assay

B1: his-tagged PVY VPg protein (protein, not shown: small tags and cut ends)
chain: GKNKSKRIQALKFRHARDKRAGFEIDNNDDTIEEFFGSAYRKKGKGKGTTVGMGKSSRRFINMYGFDPTEYSFIQFVDPLTGAQIEENVYADIRDIQERFSEVRKKMVENDDIEMQALGSNTTIHAYFRKDWSDKALKIDLMPHNPLKVCDKTNGIAKFPERELELRQTGPAVEVDVKDIPAQEVEHE
eIF4E in cytoplasm (%), 12 h p.i., cell fractionation, Western blot and densitometry: 53.5%
eIF4E in cytoplasm (%), 24 h p.i., cell fractionation, Western blot and densitometry: 81.3%
eIF4E in cytoplasm (%), 36 h p.i., cell fractionation, Western blot and densitometry: 83.3%
eIF4E in cytoplasm (%), 48 h p.i., cell fractionation, Western blot and densitometry: 74.1%
eIF4E in nucleus (%), 12 h p.i., cell fractionation, Western blot and densitometry: 46.5%
eIF4E in nucleus (%), 24 h p.i., cell fractionation, Western blot and densitometry: 18.7%
eIF4E in nucleus (%), 36 h p.i., cell fractionation, Western blot and densitometry: 16.7%
eIF4E in nucleus (%), 48 h p.i., cell fractionation, Western blot and densitometry: 25.9%
